Data from the supplement of paper PMC7877785.
± gives the uncertainty stated by the source.

Assay: self-splicing fitness, log relative to wild type (ln ratio); higher = more splicing; Tetrahymena group I intron in knt gene, E. coli kanamycin selection, DiMSum; sequences stand for … in CUCUCU…GGAGGGAAAAGUUAUCAGGCAUGCACCUGGUAGCUAGUCUUUAAACCAAUAGAUUGCAUCGGUUUAAAAGGCAAGACCGUCAAAUUGCGGGAAAGGGGUCAACAGCCGUUCAGUACCAAGUCUCAGGGGAAACUUUGAGAUGGCCUUGCAAAGGGUAUGGUAAUAAGCUGACGGACAUGGUCCUAACCACGCAGCCAAGUCCUAAGUCAACAGAUCUUCUGUUGAUAUGGAUGCAGUUCACAGACUAAAUGUCGGUCGGGGAAGAUGUAUUCUUCUCAUAAGAUAUAGUCGGACCUCUCCUUAAUGGGAGCUAGCGGAUGAAGUGAUGCAACACUGGAGCCGCUGGGAACUAAUUUGUAUGCGAAAGUAUAUUGAUUAGUUUUGGAGUACUCGUGGUCG
How it was run: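 Library with all eight P1ex-region intron nucleotides randomised, intron inside the knt kanamycin-resistance gene on pET-22b(+), in E. coli BL21(DE3). Cells grew overnight at 37°C or 30°C on LB agar with or without 25 μg/mL kanamycin (plus 100 μg/mL carbenicillin, 50 μM IPTG, 0.2% rhamnose), in six replicate transformations. Pooled colonies were amplicon-sequenced on Illumina HiSeq 2500. DiMSum fitness is the error-weighted combination of wild-type-normalised replicate fold changes, kanamycin versus none.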

Sequence	self-splicing fitness (ln) (30 °C)	self-splicing fitness (ln) (37 °C)
UCCCAGCAAUAUUACGUUUG	-3.67 ± 0.11	-2.91 ± 0.15
UCCGAGCAAUAUUACGAACU		-2.3 ± 0.32
UCCGAGCAAUAUUACGAAGA	-1.62 ± 0.21	-1.12 ± 0.18
UCCGAGCAAUAUUACGACAG	-3.18 ± 0.3	-2.55 ± 0.3
UCCGAGCAAUAUUACGACAU	-3.93 ± 0.031	-2.98 ± 0.043
UCCGAGCAAUAUUACGACGG	-1.46 ± 0.11	-0.111 ± 0.17
UCCGAGCAAUAUUACGAGCU		-2.68 ± 0.48
UCCGAGCAAUAUUACGAGUA	-1.98 ± 0.16	-1.1 ± 0.12
UCCGAGCAAUAUUACGCAAA	-3.59 ± 0.33	-2.51 ± 0.31
UCCGAGCAAUAUUACGCAGU	-2.79 ± 0.33	-2.31 ± 0.28
UCCGAGCAAUAUUACGCAUU	-2.2 ± 0.19	-3.08 ± 0.37
UCCGAGCAAUAUUACGCUAA		-2.86 ± 0.32
UCCGAGCAAUAUUACGCUCA	-3.08 ± 0.32	-2.3 ± 0.47
UCCGAGCAAUAUUACGCUCU	-3.31 ± 0.4	
UCCGAGCAAUAUUACGCUGC	-2.96 ± 0.24	-1.84 ± 0.31
UCCGAGCAAUAUUACGGCCG	-4.07 ± 0.34	
UCCGAGCAAUAUUACGGGCC	-3.8 ± 0.3	-2.94 ± 0.35
UCCGAGCAAUAUUACGGUCU	-2.4 ± 0.15	-1.58 ± 0.13
UCCGAGCAAUAUUACGUAGA	-2.09 ± 0.14	-1.42 ± 0.2
UCCGAGCAAUAUUACGUAGC	-3.33 ± 0.23	-2.14 ± 0.28
UCCGAGCAAUAUUACGUCCA	-2.89 ± 0.38	-2.37 ± 0.34
UCCGAGCAAUAUUACGUCUC	-2.26 ± 0.21	-2.99 ± 0.43

Sequence	self-splicing fitness (ln) (30 °C)	self-splicing fitness (ln) (37 °C)
UCCGAGCAAUAUUACGUGCA	-1.45 ± 0.15	-1.47 ± 0.12
UCCGAGCAAUAUUACGUGCC	-3.03 ± 0.26	-2.97 ± 0.35
UCCGAGCAAUAUUACGUGCU	-3.32 ± 0.26	-2.61 ± 0.29
UCCGAGCAAUAUUACGUUCG	-2.69 ± 0.49	-1.78 ± 0.42
UCCGAGCAAUAUUACGUUGC	-3.03 ± 0.21	-2.16 ± 0.24
UCCUAGCAAUAUUACGAAGG	-2.91 ± 0.15	-2.1 ± 0.19
UCCUAGCAAUAUUACGAGCG	-1.5 ± 0.099	-1.15 ± 0.14
UCCUAGCAAUAUUACGAUAU	-3.78 ± 0.28	-2.72 ± 0.23
UCCUAGCAAUAUUACGAUCG	-3.36 ± 0.21	-2.33 ± 0.26
UCCUAGCAAUAUUACGCGCA	-1.31 ± 0.1	-0.0853 ± 0.097
UCCUAGCAAUAUUACGCGGG	-3.2 ± 0.1	-2.66 ± 0.14
UCCUAGCAAUAUUACGCGUC	-3.53 ± 0.35	-3.53 ± 0.42
UCCUAGCAAUAUUACGGACA	-2.68 ± 0.37	-2.29 ± 0.31
UCCUAGCAAUAUUACGGAUA	-2.52 ± 0.2	-0.547 ± 0.13
UCCUAGCAAUAUUACGGCCA	-3.17 ± 0.15	-1.74 ± 0.11
UCCUAGCAAUAUUACGGCUA		-2.35 ± 0.27
UCCUAGCAAUAUUACGGUAU	-3.23 ± 0.16	-1.76 ± 0.18
UCCUAGCAAUAUUACGGUCU	-1.59 ± 0.06	-0.444 ± 0.07
UCCUAGCAAUAUUACGUACG	-3.14 ± 0.18	-1.78 ± 0.2
UCCUAGCAAUAUUACGUAUC	-2.65 ± 0.14	-2.44 ± 0.21
UCCUAGCAAUAUUACGUCGA	-0.0892 ± 0.07	0.0864 ± 0.078
UCCUAGCAAUAUUACGUGCG	-3.5 ± 0.2	-1.98 ± 0.16
